According to US20210207126A1 (ADAGENE, published 2021):
Values belong to the binder of their own block, whether it stands above or below them.

How the values were obtained:
[1] = biological target: T1, Recombinant human CTLA4-Fc (human, UniProt P16410 36-161, limits assumed); assay: ELISA on plate-coated recombinant human CTLA4-Fc as in Example 3 (FIG. 24B)
T1 construct: Coated on the ELISA plate at 1 ug/mL; also called its antigen; not shown: Fc part
T1 sequence (looked up): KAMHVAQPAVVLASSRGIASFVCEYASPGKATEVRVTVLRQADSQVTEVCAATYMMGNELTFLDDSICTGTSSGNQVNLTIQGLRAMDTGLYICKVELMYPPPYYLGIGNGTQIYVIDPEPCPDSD
Procedure: (§1) Recombinant human CTLA4-Fc was diluted to 1 μg/mL in PBS and coated on a Maxisorp plate at 4° C. overnight. Plates were blocked with PBS supplemented with 3% non-fat milk at 37° C. for 1 hour. After washing, 100 μL of 3-fold serial dilutions of antibodies were added to each well. After incubation at 37° C. for 1 hour, plates were washed four times, and 100 μL HRP conjugated anti-human IgG (Fab specific) (1:6000 dilution) was added to each well. Plates were incubated at 37° C. for 1 hour, washed four times, and then 50 μL TMB substrate solution was added to each well, and the plate was incubated at room temperature. Absorbance at 450 nm was measured after the reactions were stopped with 50 μL H₂SO₄ per well. The EC₅₀ was evaluated by fitting the ELISA data using the asymmetrical sigmoidal (five-parameter logistic equation) model of GraphPad Prism 6 software.

[2] = biological target: T1, Recombinant human CTLA4-Fc; assay: ELISA on plate-coated recombinant human CTLA4-Fc, before protease cleavage, data batch 1
Procedure: as §1

[3] = biological target: T1, Recombinant human CTLA4-Fc; assay: ELISA on plate-coated recombinant human CTLA4-Fc as in Example 3 (FIG. 24A)
Procedure: as §1

[4] = biological target: T1, Recombinant human CTLA4-Fc; assay: ELISA on plate-coated recombinant human CTLA4-Fc, before protease cleavage, data batch 2
Procedure: as §1

[5] = biological target: T1, Recombinant human CTLA4-Fc; assay: ELISA on plate-coated recombinant human CTLA4-Fc as in Example 3 (FIG. 25)
Procedure: as §1

[6] = biological target: T1, Recombinant human CTLA4-Fc; assay: ELISA on plate-coated recombinant human CTLA4-Fc, protease cleavage experiment, no treatment
Procedure: as §1
The purified activatable antibodies were treated with the proteases which recognize the cleavage sequences, and were then tested to determine whether removal of the masking peptide restored their activity.

- masking efficiency (EC50 / EC50 of parental TY21580) [1]: 554 fold
- masking efficiency (EC50 / EC50 of parental TY21580) [2]: 2210 fold
- masking efficiency (EC50 / EC50 of parental TY21580) [3]: 243 fold
- masking efficiency (EC50 / EC50 of parental TY21580) [4]: 377 fold
B1: TY22402 (antibody, V domains shown)
VH: EVQLVESGGGLVQPGGSLRLSCAASGYSISSGYHWSWIRQAPGKGLEWLARIDWDDDKYYSTSLKSRLTISRDNSKNTLYLQLNSLRAEDTAVYYCARSYVYFDYWGQGTLVTVSS
VL: EVGSYIVHHSDCDAFYPYCDSSGRSAGGGGSPLGLAGSGGSDIQLTQSPSSLSASVGDRVTITCRASQSVRGRFLAWYQQKPGKAPKLLIYDASNRATGIPSRFSGSGSGTDFTLTISSLQPEDFATYYCQQSSSWPPTFGQGTKVEIKR
notes: IgG1 from HEK293F cells; peptide fused to the N-terminus of the light chain of TY21580; also called masking peptide B13180

- masking efficiency (EC50 / EC50 of parental TY21580) [1]: 572 fold
- masking efficiency (EC50 / EC50 of parental TY21580) [2]: 826 fold
- masking efficiency (EC50 / EC50 of parental TY21580) [5]: 469 fold
- masking efficiency (EC50 / EC50 of parental TY21580) [3]: 308 fold
- masking efficiency (EC50 / EC50 of parental TY21580) [6]: 216 fold
- masking efficiency (EC50 / EC50 of parental TY21580) [4]: 385 fold
B2: TY22404 (antibody, V domains shown)
VH: B1 VH
VL: EVGSYPNPSSDCVPYYYACAYSGRSAGGGGSPLGLAGSGGSDIQLTQSPSSLSASVGDRVTITCRASQSVRGRFLAWYQQKPGKAPKLLIYDASNRATGIPSRFSGSGSGTDFTLTISSLQPEDFATYYCQQSSSWPPTFGQGTKVEIKR
notes: IgG1 from HEK293F cells; peptide fused to the N-terminus of the light chain of TY21580; also called masking peptide B13197
